Laboratory results taken from PMC5529482.

What was measured:
[1] = target: EHD2-sc-mTNFR2 (not stated | mouse) (UniProt P06804); assay: SEC; approx. 20 µg protein on BioSep-SEC-S2000 in PBS, 0.5 ml/min; size by standard proteins
[2] = target: mouse TNFR2-Fc fusion protein (mouse) (UniProt P25119); assay: ELISA; TNFR1-Fc or TNFR2-Fc coated at 1 µg/ml in PBS, 4 °C overnight; TNF muteins in 2% skim milk powder in PBS, 1 h RT; detected with anti-TNF clone F6C5 and HRP anti-mouse IgG
[3] = target: mouse TNFR2-Fc fusion protein (mouse) (UniProt P25119); assay: quartz crystal microbalance; mouse TNFR2-Fc chemically immobilised on a carboxyl sensor chip at high density (270 Hz, saturated); muteins 2-32 nM; PBST (PBS, 0.1% Tween 20) pH 7.4, 37 °C; Attana Cell 200
[4] = target: mouse TNFR2-Fc fusion protein (mouse) (UniProt P25119); assay: quartz crystal microbalance; mouse TNFR2-Fc chemically immobilised on a carboxyl sensor chip at low density (130 Hz, non-saturated); muteins 8-256 nM; PBST (PBS, 0.1% Tween 20) pH 7.4, 37 °C; Attana Cell 200; biphasic curves for p53- and GCN4-sc-mTNFR2
[5] = target: p53-sc-mTNFR2 (not stated | mouse) (UniProt P04637); assay: SEC; approx. 20 µg protein on BioSep-SEC-S2000 in PBS, 0.5 ml/min; size by standard proteins

Substance	stoichiometry N [1]	EC50 [2] [nM]	Kd [3] [nM]	koff [3] [s⁻¹]	kon [3] [M⁻¹ s⁻¹]	Kd [4] [nM]	koff [4] [s⁻¹]	kon [4] [M⁻¹ s⁻¹]	stoichiometry N [5]	Kd1 [4] [nM]	Kd2 [4] [nM]
EHD2-sc-mTNFR2 (from UniProt P06804 91-235; P06804 91-235; P06804 91-235) (ligand)	2	0.11	0.0615	3.74e-05	607000	118	0.063	533000	–	–	–
p53-sc-mTNFR2 (from UniProt P04637 320-359; P06804 91-235; P06804 91-235; P06804 91-235) (ligand)	–	0.074	0.0437	–	–	–	–	–	4	50.9	3.97
sc-mTNFR2 (mouse TNFR2-specific (D221N/A223R) single-chain mouse TNF) (from UniProt P06804 91-235; P06804 91-235; P06804 91-235) (ligand)	–	1.55	0.449	0.000399	808000	–	–	–	–	–	–
